# In paper PMC6222199, “Regulatory Targets of the Response Regulator RR_1586 from Clostridioides difficile Identified Using a Bacterial One-Hybrid Screen”:
# Tests used:
# RR_1586 [1] = molecular target: T1, RR_1586 (Clostridioides difficile R20291, UniProt A0A9R0BKD1 1-223); assay: EMSA; 10 mM Mg2+; EMSA: 5 pmol DNA in 10 ul (500 nM), 10 mM Tris pH 8, 50 mM NaCl, 10 mM MgCl2, room temperature 10 min; 10% PAGE 0.5x TBE on ice, ethidium bromide; details: protein: recombinant; tags: His6; chain copies: 2; blunt
# RR_1586 [2] = molecular target: T1, RR_1586; assay: EMSA; 10 mM Mg2+; unphosphorylated; EMSA: 5 pmol DNA in 10 ul (500 nM), 10 mM Tris pH 8, 50 mM NaCl, 10 mM MgCl2, room temperature 10 min; 10% PAGE 0.5x TBE on ice, ethidium bromide; details: protein: recombinant; tags: His6; chain copies: 2; blunt
Binder,binding result (RR_1586 [1]),binding result (RR_1586 [2])
CDR20291_0578 native direct repeat (dsDNA) DNA 1: ATTTTATTAAGAATGGGTTAAGAGTATAC DNA 2: GTATACTCTTAACCCATTCTTAATAAAAT,binds,–
CDR20291_3121 (pst) site (dsDNA) DNA 1: CTATATTAGGATTAAGTTAAGCAAGTGT DNA 2: ACACTTGCTTAACTTAATCCTAATATAG,binds,–
CDR20291_3145 site (dsDNA) DNA 1: ATAGTTAAGGTTTAATTAAGATTAAA DNA 2: TTTAATCTTAATTAAACCTTAACTAT,binds,–
CDR20291_1583 site (dsDNA) DNA 1: AGGAATTAAGGAGCAATTAAATGATG DNA 2: CATCATTTAATTGCTCCTTAATTCCT,–,binds
